Changes are numbered by the printed parent chain. Names may count otherwise.
B1: FVIIa V158D/Q286R/E296V/M298Q (enzyme)
chain: ANAFLEELRPGSLERECKEEQCSFEEAREIFKDAERTKLFWISYSDGDQCASSPCQNGGSCKDQLQSYICFCLPAFEGRNCETHKDDQLICVNENGGCEQYCSDHTGTKRSCRCHEGYSLLADGVSCTPTVEYPCGKIPILEKRNASKPQGRIVGGKDCPKGECPWQVLLLVNGAQLCGGTLINTIWVVSAAHCFDKIKNWRNLIAVLGEHDLSEHDGDEQSRRVAQVIIPSTYVPGTTNHDIALLRLHQPVVLTDHVVPLCLPERTFSERTLAFVRFSLVSGWGRLLDRGATALVLQVLNVPRLMTQDCLQQSRKVGDSPNITEYMFCAGYSDGSKDSCKGDSGGPHATHYRGTWYLTGIVSWGQGCATVGHFGVYTRVSQYIEWLQKLMRSEPRPGVLLRAPFP
B2: FVIIa T239V/Q286R/M298Q (enzyme)
chain: B1 chain with D158V, T239V, V296E
B3: FVIIa S222A/T239V/H257A/Q286R/M298Q (enzyme)
chain: B1 chain with D158V, S222A, T239V, H257A, V296E
B4: FVIIa T239V/Q286R (enzyme)
chain: B1 chain with D158V, Y234V, V296E, Q298M
B5: FVIIa S222A/Q286R/M298Q/H373F (enzyme)
chain: B1 chain with D158V, S222A, V296E, H373F
B6: FVIIa V158D/Q286R/E296V/M298Q/H373F (enzyme)
chain: B1 chain with H373F
B7: FVIIa Gla swap FIX (enzyme)
chain: YNSGKLEEFVQGNLERECMEEKCSFEEAREVFENTERTTEFWKQYSDGDQCASSPCQNGGSCKDQLQSYICFCLPAFEGRNCETHKDDQLICVNENGGCEQYCSDHTGTKRSCRCHEGYSLLADGVSCTPTVEYPCGKIPILEKRNASKPQGRIVGGKVCPKGECPWQVLLLVNGAQLCGGTLINTIWVVSAAHCFDKIKNWRNLIAVLGEHDLSEHDGDEQSRRVAQVIIPSTYVPGTTNHDIALLRLHQPVVLTDHVVPLCLPERTFSERTLAFVRFSLVSGWGQLLDRGATALELMVLNVPRLMTQDCLQQSRKVGDSPNITEYMFCAGYSDGSKDSCKGDSGGPHATHYRGTWYLTGIVSWGQGCATVGHFGVYTRVSQYIEWLQKLMRSEPRPGVLLRAPFP
B8: FVIIa K109N (enzyme)
chain: B1 chain with K109N, D158V, R286Q, V296E, Q298M
B9: FVIIa H257S (enzyme)
chain: B1 chain with D158V, H257S, R286Q, V296E, Q298M
B10: FVIIa A175S (enzyme)
chain: B1 chain with D158V, A175S, R286Q, V296E, Q298M
B11: FVIIa S222A/Q286R (enzyme)
chain: B1 chain with D158V, S222A, V296E, Q298M
B12: FVIIa S222A/H257A/Q286R (enzyme)
chain: B1 chain with D158V, S222A, H257A, V296E, Q298M
B13: FVIIa T239V (enzyme)
chain: B1 chain with D158V, T239V, R286Q, V296E, Q298M
B14: FVIIa T239I (enzyme)
chain: B1 chain with D158V, T239I, R286Q, V296E, Q298M
B15: FVIIa T239I/Q286R (enzyme)
chain: B1 chain with D158V, T239I, V296E, Q298M
B16: FVIIa T239I/Q286R/H373F (enzyme)
chain: B1 chain with D158V, T239I, V296E, Q298M, H373F
B17: T239I/Q286R/M298Q/H373F-FVIIa (enzyme)
chain: B1 chain with D158V, T239I, V296E, H373F
B18: H257S/Q286R/M298Q-FVIIa (enzyme)
chain: B1 chain with D158V, H257S, V296E
B19: S222A/H257S/Q286R/M298Q-FVIIa (enzyme)
chain: B1 chain with D158V, S222A, H257S, V296E
B20: H257S/Q286R/M298Q/H373F-FVIIa (enzyme)
chain: B1 chain with D158V, H257S, V296E, H373F
B21: S222A/Q286R/M298Q-FVIIa (enzyme)
chain: B1 chain with D158V, S222A, V296E
B22: Gla swap FIX/S222A/Q286R/M298Q-FVIIa (enzyme)
chain: B7 chain with S223A, Q287R, M299Q
B23: V158D/E296V/M298Q/H373F-FVIIa (enzyme)
chain: B1 chain with R286Q, H373F
B24: H257A/Q286R/M298Q-FVIIa (enzyme)
chain: B1 chain with D158V, H257A, V296E
B25: Gla swap FIX/T128N/P129A/A175S/S222A/Q286R-FVIIa (enzyme)
chain: B7 chain with T129N, P130A, A176S, S223A, Q287R

Biological target: T1, soluble tissue factor (recombinant human Coagulation Factor III/soluble tissue factor; R&D Systems) (human)
T1 chain: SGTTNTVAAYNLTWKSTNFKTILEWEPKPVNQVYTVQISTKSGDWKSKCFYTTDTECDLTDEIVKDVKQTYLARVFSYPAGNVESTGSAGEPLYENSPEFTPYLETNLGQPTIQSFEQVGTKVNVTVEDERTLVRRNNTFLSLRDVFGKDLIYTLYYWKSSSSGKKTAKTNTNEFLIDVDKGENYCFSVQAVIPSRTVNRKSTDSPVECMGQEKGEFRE
Experiment: SPR (Biacore T100), sTF on chip, two-state fit

Row | Binder | Affinity Kd-WT/Kd-mut | Kd
1 | B1 | 3.5 | 2.2 nM
2 | B2 | 3.1 | 2.5 nM
3 | B3 | 3.4 | 2.2 nM
4 | B4 | 1.7 | 2.3 nM
5 | B5 | 3.7 | 2.1 nM
6 | B6 | 4.5 | 1.7 nM
7 | B7 | – | 36 nM
8 | B8 | – | 10.8 nM
9 | B9 | 1.2 | 6.6 nM
10 | B10 | 0.6 | 12.3 nM
11 | B11 | 2.3 | 3.4 nM
12 | B12 | 1.3 | 6 nM
13 | B13 | 1.5 | 5.2 nM
14 | B14 | 1.2 | 6.2 nM
15 | B15 | 1 | 8 nM
16 | B16 | 1 | 7.8 nM

Biological target: T2, Mesyl-dFPR-ACC
T2 sequence (peptide, N-terminal mesyl; D-Phe at position 1 (dF); C-terminal ACC fluorophore): FPR
Experiment: not given

Row | Binder | Activity (µmol/sec/µmol), specific activity for mesyl-dFPR-ACC (µmol/sec/µmol)
17 | B1 | 1.83
18 | B2 | 1.74
19 | B3 | 1.66
20 | B4 | 1.26
21 | B17 | 1.59
22 | B18 | 1.85
23 | B19 | 1.77
24 | B20 | 2.32
25 | B5 | 2.79
26 | B21 | 1.9
27 | B22 | 1.12
28 | B23 | 5.6
29 | B24 | 2.18
30 | B25 | 0.75
31 | B6 | 1.89

Biological target: Factor X (Homo sapiens (Human)) (UniProt P00742)
Experiment: not given

Row | Binder | kcat/KM (M^-1s^-1), TF-dependent assay | kcat/KM, TF-independent assay | kcat/KM, TF-dependent assay
32 | B1 | 1.49e+08 M⁻¹ s⁻¹ | 1020 M⁻¹ s⁻¹ | –
33 | B2 | 1.72e+08 M⁻¹ s⁻¹ | 29.3 M⁻¹ s⁻¹ | –
34 | B3 | 2.14e+08 M⁻¹ s⁻¹ | 143 M⁻¹ s⁻¹ | –
35 | B17 | 1.08e+08 M⁻¹ s⁻¹ | 13.1 M⁻¹ s⁻¹ | –
36 | B18 | 1.4e+08 M⁻¹ s⁻¹ | 27.4 M⁻¹ s⁻¹ | –
37 | B19 | 1.58e+08 M⁻¹ s⁻¹ | – | –
38 | B20 | 1.52e+08 M⁻¹ s⁻¹ | 30.4 M⁻¹ s⁻¹ | –
39 | B5 | 1.48e+08 M⁻¹ s⁻¹ | – | –
40 | B21 | 1.29e+08 M⁻¹ s⁻¹ | 253 M⁻¹ s⁻¹ | –
41 | B22 | 2.1e+08 M⁻¹ s⁻¹ | 415 M⁻¹ s⁻¹ | –
42 | B23 | – | 1300 M⁻¹ s⁻¹ | 1.51e+08 M⁻¹ s⁻¹
43 | B24 | – | 61.5 M⁻¹ s⁻¹ | 1.13e+08 M⁻¹ s⁻¹
44 | B25 | – | 30.5 M⁻¹ s⁻¹ | 3.88e+07 M⁻¹ s⁻¹
45 | B6 | – | – | 2.39e+08 M⁻¹ s⁻¹
